Changes are numbered by the printed parent chain.
B1: C40M63 (antibody, human IgG1, kappa, V domains shown)
VH: QVQLVQSGAEVKKPGSSVKVSCKASGGTFSSYAISWVRQAPGQGLEWMGGIIPIFGTANYAQKFQGRVTITADESTSTAYMELSSLRSEDTAVYYCARVGHPAWWRDSLDYWGQGTLVTVSS
VL: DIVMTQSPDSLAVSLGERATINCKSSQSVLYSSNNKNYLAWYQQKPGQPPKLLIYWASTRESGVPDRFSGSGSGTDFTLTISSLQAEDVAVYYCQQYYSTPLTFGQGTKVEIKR
notes: Full-length IgG1/kappa; from phage display
B2: C40M66 (antibody, human IgG1, kappa, V domains shown)
VH: B1 VH with G100R, H101Y, P102S, W105Y
VL: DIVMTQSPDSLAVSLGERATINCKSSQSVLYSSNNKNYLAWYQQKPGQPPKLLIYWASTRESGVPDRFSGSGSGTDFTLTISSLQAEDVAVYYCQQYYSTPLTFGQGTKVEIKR
notes: as for B1
B3: C40M62 (antibody, human IgG1, kappa, V domains shown)
VH: B1 VH with G100A, H101N, P102A, W104Y, W105F, D107S, S108G
VL: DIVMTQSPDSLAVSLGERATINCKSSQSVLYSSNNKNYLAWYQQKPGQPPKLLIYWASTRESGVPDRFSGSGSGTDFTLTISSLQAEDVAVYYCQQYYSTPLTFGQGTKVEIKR
notes: as for B1
B4: C40M18 (antibody, human IgG1, lambda, V domains shown)
VH: EVQLVESGGGLVQPGGSLRLSCAASGFTFSSYAMSWVRQAPGKGLEWVSIINNNVGRTYYADSVKGRFTISRDNSKNTLYLQMNSLRAEDTAVYYCAKEGGDYYYYGMDVWGQGTTVTVSS
VL: SYELTQPPSVSVSPGQTASITCSGDKLGDKYVCWYQQKPGQSPVVVIYQDSKRPSGIPERFSGSNSGNTATLTISGTQAMDEAYYYCQAWVSSTVVFGGGTKLTVLG
notes: Full-length IgG1/lambda; from OmniRat (OMT); VH C40H48, VL C40L64
B5: C40M102 (antibody, human IgG1, lambda, V domains shown)
VH: B4 VH
VL: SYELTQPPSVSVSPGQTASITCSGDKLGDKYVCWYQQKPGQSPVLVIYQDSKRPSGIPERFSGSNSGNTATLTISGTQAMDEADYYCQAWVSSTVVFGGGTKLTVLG
notes: Variant of C40M18 (VH C40H48, VL C40L70); cloned as IgG1
B6: C40M104 (antibody, human IgG1, lambda, V domains shown)
VH: B4 VH
VL: B4 VL with C33S
notes: Variant of C40M18 (VH C40H48, VL C40L68; LCDR1 cysteine mutated); cloned as IgG1
B7: C40M103 (antibody, human IgG1, lambda, V domains shown)
VH: B4 VH
VL: B4 VL with C33S, V45L, Y84D
notes: Variant of C40M18 (VH C40H48, VL C40L69; LCDR1 cysteine mutated); cloned as IgG1
B8: C40M105 (antibody, human IgG1, lambda, V domains shown)
VH: QLQLQESGPGLVKPSETLSLTCTVSGGSISSSSYYWGWIRQPPGKGLEWIGNIYYRGDTYYSPSLKSRVTISVDTSKNQFSLKLSSVTAADTAVYYCARGFRFDYWGQGTLVTVSS
VL: QSALTQPPSASGSPGQSVTISCTGTSSDVGGYNYVSWYQQHPGKAPKLMIYEVSKRPSGVPDRFSGSKSGNTASLTVSGLQAEDEADYYCSSYAGSNNLVFGGGTKLTVLG

Target: T1, Full length human CD40 (huCD40) on cells (human, UniProt P25942 21-277)
Assay: cell-based or functional assay

Row | Binder | DC EC50, CD80 surface expression, with cross-linker [ng/mL] | DC EC50, CD83 surface expression, with cross-linker [ng/mL] | DC EC50, CD86 surface expression, with cross-linker [ng/mL] | DC EC50, HLA-DR surface expression, with cross-linker [ng/mL]
1 | B1 | 70.5 | 0.962 | 258 | 154
2 | B2 | 158 | 175 | 423 | 39.4
3 | B3 | 602 | 218 | 381 | 60.4
4 | B4 | 52.3 | 47.8 | 30.2 | 10.5

Target: T1, Full length human CD40 (huCD40) on cells
Assay: cell-based or functional assay
Remark: another data set of the same source
Target sequence in this assay (P25942 21-277): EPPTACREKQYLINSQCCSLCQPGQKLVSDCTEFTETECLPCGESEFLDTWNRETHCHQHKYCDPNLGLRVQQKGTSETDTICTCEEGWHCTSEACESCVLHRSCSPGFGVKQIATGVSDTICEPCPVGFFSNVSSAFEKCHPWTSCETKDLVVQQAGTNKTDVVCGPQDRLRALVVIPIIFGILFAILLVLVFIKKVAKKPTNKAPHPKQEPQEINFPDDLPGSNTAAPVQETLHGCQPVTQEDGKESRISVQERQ

Row | Binder | EC50, Human B cells (CD83) [ng/mL] | EC50, Human DC (HLA-DR) [ng/mL] | EC50, agonistic activity on HEK-Blue™ CD40L cells (NF-κB/SEAP) [ng/mL]
5 | B5 | 23.9 | 367 | 75.1
6 | B6 | 16.7 | 166 | 30.8
7 | B7 | 4.79 | 388 | 2.74
8 | B4 | 22.6 | 166 | 69.6
9 | B8 | 2.82 | 2970 | 17.3

Target: T2, human CD40 (SPR analyte) (human, UniProt P25942 21-193)
T2 construct: also called huCD40-ECD
Assay: SPR ProteOn XPR36, mAb captured by anti-human IgG Fc, CD40 as analyte, 25 C
Method: (§1) Affinity measurements were performed using Surface Plasmon Resonance (SPR) using a ProteOn XPR36 system (BioRad). […] Approximately 5000 RU (response units) of mAbs were immobilized. The kinetic experiments were performed at 25° C. in running buffer (DPBS+0.01% P20+100 μg/ml BSA). To perform kinetic experiments, 200 RU of mAbs were captured followed by injections of analytes (human or cyno CD40) at 5 concentrations (in a 4-fold serial dilution). The association phase was monitored for 3 minutes at 50 μL/min, then followed by 15 minutes of buffer flow (dissociation phase). The chip surface was regenerated with two 18 second pulses of 100 mM H₃PO₄ (Sigma, Cat#7961) at 100 μL/min.
(§2) The collected data were processed using ProteOn Manager software. First, the data was corrected for background using inter-spots. Then, double reference subtraction of the data was performed by using the buffer injection for analyte injections. The kinetic analysis of the data was performed using a Langmuir 1:1 binding model. The result for each mAb was reported in the format of Ka (On-rate), Kd (Off-rate) and KD (equilibrium dissociation constant).
(§3) The parameters reported in this table were obtained from a 1:1 Langmuir binding model for all samples. Affinity, KD=kd/ka.

Row | Binder | Kd [nM] | koff [s⁻¹] | kon [M⁻¹ s⁻¹]
10 | B1 | 1.21 | 0.000641 | 528000
11 | B2 | 3.05 | 0.00116 | 378000
12 | B3 | 13.1 | 0.00247 | 189000
13 | B4 | 0.151 | 0.000162 | 1.07e+06

Target: T3, Macaca fascicularis (cyno) CD40 (cCD40) on cells (Macaca fascicularis (cynomolgus), UniProt P25942 21-277 (human entry))
T3 construct: CD40 on cyno mature DCs
T3 chain: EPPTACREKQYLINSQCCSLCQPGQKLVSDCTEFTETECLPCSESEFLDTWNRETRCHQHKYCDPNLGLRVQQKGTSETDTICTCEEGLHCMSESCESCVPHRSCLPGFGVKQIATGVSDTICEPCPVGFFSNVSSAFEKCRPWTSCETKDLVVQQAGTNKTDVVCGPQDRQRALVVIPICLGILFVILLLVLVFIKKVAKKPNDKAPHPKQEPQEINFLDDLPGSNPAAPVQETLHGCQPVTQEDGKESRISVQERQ
Assay: flow cytometry, cyno mature DCs
Method: (§4) Human monocytes were isolated from either frozen/fresh PBMC using CD14 negative isolation kit per manufacturer's protocol (MACS Miltenyi). Cyno monocytes were isolated from fresh PBMC using CD14 positive isolation kit per manufacturer's protocol (MACS Miltenyi). To generate DCs, monocytes were cultured for 5 days in complete media RPMI (Invitrogen) in the presence of 100 ng/ml human GM-CSF and human IL-4 (Peprotech) and media was replenished every 2 days. On day 5, DCs were stimulated with 100 ng/ml LPS (Sigma) for 24 hours. Cells were then stained with each of the tested CD40 antibody at different concentration in flow cytometry buffer (PBS+1% FBS; BD Bioscience) in 100 μl volume for 30 minutes on ice followed with two washes with flow buffer. Cells were then stained for additional 30 minutes on ice with APC-conjugated anti human IgG (Jackson ImmunoResearch) at the recommended dilution 1:100 and washed twice with flow buffer. Cells were analyzed for percent positive and Mean Fluorescence Intensity (MFI) to determine the antibody binding using Fortessa (BD Bioscience).
(§5) The experiments were conducted using assays described above. 20 antibodies were characterized further based on their binding to human DCs, cyno DCs, Raji cells and HEK-Blue™ CD40L cells.

Row | Binder | EC50 [ng/mL]
14 | B1 | 30.9
15 | B2 | 48.3
16 | B3 | 71.6
17 | B4 | 38.9

Target: T4, cyno CD40 (SPR analyte) (Macaca fascicularis (cynomolgus), UniProt P25942 21-193 (human entry), limits assumed)
T4 construct: also called cCD40-ECD
T4 chain: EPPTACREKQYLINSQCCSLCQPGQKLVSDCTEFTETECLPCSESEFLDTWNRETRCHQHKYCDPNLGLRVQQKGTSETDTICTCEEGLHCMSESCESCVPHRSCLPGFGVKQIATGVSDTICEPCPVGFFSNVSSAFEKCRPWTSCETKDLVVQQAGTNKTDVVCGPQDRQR
Assay: SPR ProteOn XPR36, mAb captured by anti-human IgG Fc, cyno CD40 as analyte, 25 C
Method: as §1, §2

Row | Binder | Kd [nM] | koff [s⁻¹] | kon [M⁻¹ s⁻¹]
18 | B2 | 1.64 | 0.000577 | 352000
19 | B4 | 0.0712 | 9.41e-05 | 1.32e+06

Target: T1, Full length human CD40 (huCD40) on cells
Assay: flow cytometry, HEK-Blue CD40L cells
Target sequence in this assay (P25942 21-277): as the sequence (P25942 21-277) above

Row | Binder | EC50 [ng/mL]
20 | B5 | 162
21 | B6 | 178
22 | B7 | 112
23 | B4 | 150
24 | B8 | 2160

Target: T1, Full length human CD40 (huCD40) on cells
Assay: cell-based or functional assay
Remark: another data set of the same source

Row | Binder | B cells EC50, CD23 surface expression, with cross-linker [ng/mL] | B cells EC50, CD80 surface expression, with cross-linker [ng/mL] | B cells EC50, CD83 surface expression, with cross-linker [ng/mL] | B cells EC50, CD86 surface expression, with cross-linker [ng/mL] | B cells EC50, HLA-DR surface expression, with cross-linker [ng/mL]
25 | B1 | 6.94 | 0.0167 | 0.581 | 1.26 | 0.00966
26 | B2 | 41.4 | 5.11 | 1.82 | 2.46 | 1.08
27 | B3 | 12.5 | 1.54 | 1.26 | 1.14 | 0.356
28 | B4 | 306 | 48.1 | 62.4 | 8.72 | 23.9

Target: T1, Full length human CD40 (huCD40) on cells
Assay: flow cytometry, Raji cells

Row | Binder | EC50 [ng/mL]
29 | B1 | 39.6
30 | B2 | 73
31 | B3 | 99.4
32 | B4 | 73

Target: T1, Full length human CD40 (huCD40) on cells
Assay: flow cytometry, human DCs
Target sequence in this assay (P25942 21-277): as the sequence (P25942 21-277) above

Row | Binder | EC50 [ng/mL]
33 | B5 | 438
34 | B6 | 253
35 | B7 | 143
36 | B4 | 267
37 | B8 | 5760

Target: T4, cyno CD40 (SPR analyte)
Assay: SPR ProteOn XPR36, mAb captured, cyno CD40 as analyte, 25 C; did not fit well to 1:1 model
Method: as §1, §2, §3

Row | Binder | Kd [nM] | koff [s⁻¹] | kon [M⁻¹ s⁻¹]
38 | B1 | 0.412 | 0.000307 | 746000
39 | B3 | 2.64 | 0.000908 | 343000

Target: T1, Full length human CD40 (huCD40) on cells
Assay: flow cytometry, human mature DCs
Method: as §4, §5

Row | Binder | EC50 [ng/mL]
40 | B1 | 99.6
41 | B2 | 202
42 | B3 | 329
43 | B4 | 352

Target: T1, Full length human CD40 (huCD40) on cells
Assay: flow cytometry, human B cells
Target sequence in this assay (P25942 21-277): as the sequence (P25942 21-277) above

Row | Binder | EC50 [ng/mL]
44 | B5 | 159
45 | B6 | 110
46 | B7 | 75
47 | B4 | 110
48 | B8 | 6650

Target: T1, Full length human CD40 (huCD40) on cells
Assay: flow cytometry, HEK-Blue CD40L cells
Remark: another data set of the same source

Row | Binder | EC50 [ng/mL]
49 | B1 | 84.9
50 | B2 | 169
51 | B3 | 228
52 | B4 | 126
